Reference: publication PMC9638904, “Structure and mechanism of the type I-G CRISPR effector” (Nucleic Acids Research, 2022)

How the values were obtained:
[1] = biological target: T1, Csb2 N-terminal (Cas5-like) domain (Thioalkalivibrio sulfidiphilus HL-EbGr7, UniProt B8GLG2 1-259); assay: fluorescence anisotropy; Anisotropy: 25 nM RNA, 50 mM NaCl, 1 mM DTT, 5 mM MgCl2, 1 mM EDTA, 0.1 U/ul RNase inhibitor, 37 C; EMSA/plasmid: 20 mM Tris-HCl, 50 mM NaCl, 1 mM DTT, 0.1 mg/ml BSA, 5 mM MgCl2, 1 mM EDTA, 37 C (30 min EMSA, 1 h plasmid); settings: protein: recombinant, tags: N-terminal His8-TEV, removed
T1 sequence: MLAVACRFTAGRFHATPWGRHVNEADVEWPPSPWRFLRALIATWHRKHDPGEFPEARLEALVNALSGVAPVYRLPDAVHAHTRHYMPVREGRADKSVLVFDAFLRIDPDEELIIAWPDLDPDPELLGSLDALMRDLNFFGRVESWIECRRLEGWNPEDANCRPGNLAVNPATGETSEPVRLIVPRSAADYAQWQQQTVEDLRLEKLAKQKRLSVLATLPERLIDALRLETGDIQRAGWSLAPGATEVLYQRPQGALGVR

Csb2 [2] = biological target: T2, Csb2 (Thioalkalivibrio sulfidiphilus HL-EbGr7, UniProt B8GLG2 1-516); assay: fluorescence anisotropy; 5 mM MgCl2, 1 mM EDTA; Anisotropy: 25 nM RNA, 50 mM NaCl, 1 mM DTT, 5 mM MgCl2, 1 mM EDTA, 0.1 U/ul RNase inhibitor, 37 C; EMSA/plasmid: 20 mM Tris-HCl, 50 mM NaCl, 1 mM DTT, 0.1 mg/ml BSA, 5 mM MgCl2, 1 mM EDTA, 37 C (30 min EMSA, 1 h plasmid); settings: protein: recombinant; tags: cloning described in pET-Duet and pEV5HisTEV; His8-TEV tag removed; label: 5'-6-FAM; hairpin
T2 sequence: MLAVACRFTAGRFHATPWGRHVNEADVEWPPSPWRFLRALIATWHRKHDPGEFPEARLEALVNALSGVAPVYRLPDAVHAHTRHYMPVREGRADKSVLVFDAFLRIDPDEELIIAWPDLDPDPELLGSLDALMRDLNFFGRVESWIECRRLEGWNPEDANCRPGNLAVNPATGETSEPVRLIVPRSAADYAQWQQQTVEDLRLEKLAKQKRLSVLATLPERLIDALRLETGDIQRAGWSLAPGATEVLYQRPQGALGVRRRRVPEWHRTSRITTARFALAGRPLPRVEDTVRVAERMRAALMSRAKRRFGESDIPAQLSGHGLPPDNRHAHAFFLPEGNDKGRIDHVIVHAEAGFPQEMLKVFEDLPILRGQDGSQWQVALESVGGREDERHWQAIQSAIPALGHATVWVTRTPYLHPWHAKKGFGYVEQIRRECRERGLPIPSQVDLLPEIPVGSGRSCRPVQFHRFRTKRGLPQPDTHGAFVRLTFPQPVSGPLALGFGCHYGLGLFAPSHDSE

[3] = biological target: the molecule itself; assay: cryo-EM structure; SEC-purified complex of Cas7, Cas8g, Csb2 and 72 nt crRNA, 1 mg/ml; Titan Krios 300 kV; multibody refinement for Cas8g (~8 Å)
Csb2 [4] = biological target: T2, Csb2; assay: fluorescence anisotropy; no appreciable binding; Anisotropy: 25 nM RNA, 50 mM NaCl, 1 mM DTT, 5 mM MgCl2, 1 mM EDTA, 0.1 U/ul RNase inhibitor, 37 C; EMSA/plasmid: 20 mM Tris-HCl, 50 mM NaCl, 1 mM DTT, 0.1 mg/ml BSA, 5 mM MgCl2, 1 mM EDTA, 37 C (30 min EMSA, 1 h plasmid); settings: protein: recombinant; tags: cloning described in pET-Duet and pEV5HisTEV; His8-TEV tag removed
Csb2;Cas7 = biological target: T3, Csb2;Cas7 (Thioalkalivibrio sulfidiphilus …, UniProt B8GLG2;B8GLG3 1-516;1-316, |); assay: EMSA; 0.8 uM effector; no Cas8g, no Cas3; no apparent shift; Anisotropy: 25 nM RNA, 50 mM NaCl, 1 mM DTT, 5 mM MgCl2, 1 mM EDTA, 0.1 U/ul RNase inhibitor, 37 C; EMSA/plasmid: 20 mM Tris-HCl, 50 mM NaCl, 1 mM DTT, 0.1 mg/ml BSA, 5 mM MgCl2, 1 mM EDTA, 37 C (30 min EMSA, 1 h plasmid); settings: protein: recombinant;recombinant, tags: cloning described in pET-Duet and pEV5HisTEV, His8-TEV tag removed;N-terminal His8-TEV, copies: 1;7, label: 32P 5' end on DNA, crRNA / target strand / non-target strand, target strand as printed has 1 nt 5' overhang
T3 sequence 1: T2 sequence
T3 sequence 2: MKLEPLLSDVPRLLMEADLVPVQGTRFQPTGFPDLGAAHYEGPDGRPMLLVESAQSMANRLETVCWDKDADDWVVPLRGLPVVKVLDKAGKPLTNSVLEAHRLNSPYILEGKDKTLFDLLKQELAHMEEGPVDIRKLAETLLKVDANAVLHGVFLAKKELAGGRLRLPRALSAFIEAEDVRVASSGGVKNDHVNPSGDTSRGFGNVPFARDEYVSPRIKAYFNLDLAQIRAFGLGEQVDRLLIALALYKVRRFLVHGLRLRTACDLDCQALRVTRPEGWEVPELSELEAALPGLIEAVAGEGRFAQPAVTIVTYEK

Csb2;Cas7;Cas8g;Cas3 = Csb2;Cas7;Cas8g;Cas3 (Thioalkalivibrio sulfidiphilus …, UniProt B8GLG2;B8GLG3;B8GLG4;B8GLG5 1-516;1-316;1-720;1-828, |||); assay: EMSA; 0.8 uM effector; near-complete shift; Anisotropy: 25 nM RNA, 50 mM NaCl, 1 mM DTT, 5 mM MgCl2, 1 mM EDTA, 0.1 U/ul RNase inhibitor, 37 C; EMSA/plasmid: 20 mM Tris-HCl, 50 mM NaCl, 1 mM DTT, 0.1 mg/ml BSA, 5 mM MgCl2, 1 mM EDTA, 37 C (30 min EMSA, 1 h plasmid); settings: protein: recombinant;recombinant;recombinant;recombinant; tags: cloning described in pET-Duet and pEV5HisTEV; copies: 1;7;1;1; label: 32P 5' end on DNA; crRNA / target strand / non-target strand; target strand as printed has 1 nt 5' overhang
Cas3 = biological target: T4, Cas3 (Thioalkalivibrio sulfidiphilus HL-EbGr7, UniProt B8GLG5 1-828); assay: EMSA; Cas3 alone; TS- or NTS-labelled; Anisotropy: 25 nM RNA, 50 mM NaCl, 1 mM DTT, 5 mM MgCl2, 1 mM EDTA, 0.1 U/ul RNase inhibitor, 37 C; EMSA/plasmid: 20 mM Tris-HCl, 50 mM NaCl, 1 mM DTT, 0.1 mg/ml BSA, 5 mM MgCl2, 1 mM EDTA, 37 C (30 min EMSA, 1 h plasmid); settings: protein: recombinant; tags: N-terminal His8-TEV, removed; label: 32P on TS or NTS (EMSA); 1 nt 5' overhang on strand 1 as printed
T4 sequence: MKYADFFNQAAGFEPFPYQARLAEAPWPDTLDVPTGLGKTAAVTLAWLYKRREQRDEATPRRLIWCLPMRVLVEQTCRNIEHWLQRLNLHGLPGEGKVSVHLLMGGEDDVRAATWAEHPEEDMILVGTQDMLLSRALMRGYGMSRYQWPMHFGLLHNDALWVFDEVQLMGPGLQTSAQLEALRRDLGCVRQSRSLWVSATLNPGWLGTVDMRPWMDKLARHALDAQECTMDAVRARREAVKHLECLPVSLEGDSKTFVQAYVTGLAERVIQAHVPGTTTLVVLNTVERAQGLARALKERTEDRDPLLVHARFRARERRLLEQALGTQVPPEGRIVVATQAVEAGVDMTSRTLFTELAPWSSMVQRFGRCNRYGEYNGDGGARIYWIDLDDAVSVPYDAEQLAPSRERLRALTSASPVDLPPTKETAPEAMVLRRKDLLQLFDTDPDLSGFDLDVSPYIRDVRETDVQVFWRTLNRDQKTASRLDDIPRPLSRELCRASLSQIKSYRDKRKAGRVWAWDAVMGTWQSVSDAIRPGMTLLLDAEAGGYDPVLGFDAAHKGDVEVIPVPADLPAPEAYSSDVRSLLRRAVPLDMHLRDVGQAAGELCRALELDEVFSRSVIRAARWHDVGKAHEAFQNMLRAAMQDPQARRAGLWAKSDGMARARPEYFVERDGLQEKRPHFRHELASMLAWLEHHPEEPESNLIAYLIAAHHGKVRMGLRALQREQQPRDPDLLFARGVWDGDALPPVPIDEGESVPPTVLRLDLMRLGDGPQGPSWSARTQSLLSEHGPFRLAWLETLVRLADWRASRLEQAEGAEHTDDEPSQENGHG

GUCAUCCGCGGCAUUUAGCCGCGGCCUC (structured_RNA) [3' hairpin RNA (28 nt)]
binding result ([1]; label: 5'-6-FAM, hairpin): no binding
Kd (Csb2 [2]): 43 nM

B1: Cas7 (type I-G CRISPR effector subunit, Thioalkalivibrio sulfidiphilus HL-EbGr7) (natural protein, UniProt B8GLG3 1-316, looked up)
chain: T3 sequence 2
notes: synthetic gene, codon-optimised for E. coli; Seven copies stand on the crRNA in the Cascade complex; also called Cas7.1 to Cas7.7 (the seven copies in the complex); source: E. coli C43(DE3), purified (HisTrap, TEV cleavage, gel filtration); not shown: His8, N-terminal, cleaved
stoichiometry N [3]: 7

GUCAUCCGCGGCAUUUAGCCGCGGCCUCAUUGAAGC (structured_RNA) [CRISPR repeat RNA (36 nt)]
binding result ([1]; label: 5'-6-FAM, hairpin): no binding
Kd (Csb2 [2]): 55 nM

AUUGAAGC (ssRNA) [8 nt 5' handle RNA]
binding result [1]: no binding
binding result (Csb2 [4]): no binding

B2: Tet crRNA with 80 bp target dsDNA (mixed)
RNA: AUUGAAGCAAGCUGUCCCUGAUGGUCGUCAUCUACCUGCCUGGAGUCAUCCGCGGCAUUUAGCCGCGGCCUC
DNA 1: GCCCGCGTTGCAGGCCATGCTGTCCAGGCAGGTAGATGACGACCATCAGGGACAGCTTCAAGGATCGCTCGCGGCTCTTAC
DNA 2: GTAAGAGCCGCGAGCGATCCTTGAAGCTGTCCCTGATGGTCGTCATCTACCTGCCTGGACAGCATGGCCTGCAACGCGGG
binding result (Csb2;Cas7): no binding
binding result (Csb2;Cas7;Cas8g;Cas3): binds

B3: 80 bp target dsDNA (no crRNA) (dsDNA)
DNA 1: B2 DNA 1
DNA 2: B2 DNA 2
binding result (Cas3): no binding
